Results taken from publication PMC2198831 (The Journal of Cell Biology, 2001).
Substitutions are numbered along the chain they refer to. Blank lines part the entries; values can stand above or below the binder they belong to.

Tests used:
[1] = target: yeast actin monomers (S. cerevisiae, UniProt P60010 1-375); experiment: native gel or EMSA
[2] = target: T1, yeast capping protein Cap1/2p, purified (S. cerevisiae, UniProt P28495;P13517); experiment: native gel or EMSA
T1 sequence 1: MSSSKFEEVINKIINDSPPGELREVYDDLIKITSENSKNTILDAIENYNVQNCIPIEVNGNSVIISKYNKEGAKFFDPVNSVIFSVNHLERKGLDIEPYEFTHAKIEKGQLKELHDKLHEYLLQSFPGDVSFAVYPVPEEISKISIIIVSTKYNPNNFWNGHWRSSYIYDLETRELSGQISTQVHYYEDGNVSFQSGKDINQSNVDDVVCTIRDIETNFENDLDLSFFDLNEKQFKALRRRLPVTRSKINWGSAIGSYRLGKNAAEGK
T1 sequence 2: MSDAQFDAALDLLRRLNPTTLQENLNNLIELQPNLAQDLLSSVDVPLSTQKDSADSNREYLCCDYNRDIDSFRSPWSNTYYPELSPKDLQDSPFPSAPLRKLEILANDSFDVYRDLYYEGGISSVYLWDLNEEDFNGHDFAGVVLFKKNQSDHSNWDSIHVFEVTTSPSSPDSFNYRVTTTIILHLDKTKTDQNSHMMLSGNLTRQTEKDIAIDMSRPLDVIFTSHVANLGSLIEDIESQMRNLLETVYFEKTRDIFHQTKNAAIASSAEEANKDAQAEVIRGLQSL

binding result [1]: binds | binding result [2]: binds
B1: yeast twinfilin (Twf1p), wild type, purified recombinant (natural protein)
chain: MSTQSGIVAEQALLHSLNENLSADGIVIIIAKISPDSTSVHQTQVARSFEELVQLASQEREPLYIFYKPEGLDKYFFVSFIPDGSPVRSRMLYASTKNTLARQVGSNSLSTEQPLITDAQDLVDLKNFDSARPAGQNKPLTHDEEMQIEINKQQALLRKNTSVKLVSQDSASPLSLTFRVNSEKPINEILDSEGKNLIIFQIDPSNETIQIVQSDTCPSVDELYIDLPGPSYTIFRQGDSSFFIYSCPSGSKVKDRMIYASNKNGFINYLKNDQKIAFSKVVEIGDFVELDKSLLMATNKEDSLDHGSNPDLPNKSNLKFNKPKGPLRKRRT

binding result [2]: binds
B2: Twf1-3p mutant yeast twinfilin (alanines in both ADF-H domains) (natural protein)
chain: B1 chain with R88A, R90A, K254A, R256A
